In article PMC6868016:

What was measured:
[1] = biological target: ACP-GluA1 (GluA1 tagged with the acyl carrier protein at its N-terminus) (mouse); assay: single-molecule fluorescence tracking (TIRF), colocalization durations, simultaneous two colours; living HEK293 cells, plasma membrane, TARP2-mGFP with ATTO594-labelled ACP-GluA1 or ACP-GluA2 monomers and homodimers; lifetimes corrected for photobleaching
[2] = biological target: ACP-GluA2 (GluA2 tagged with the acyl carrier protein at its N-terminus), P23819; assay: as above; conditions: remark: other sources report otherwise
ACP-GluA2 (GluA2 tagged with the acyl carrier protein at its N-terminus), P23819, sequence (P23819 25-883): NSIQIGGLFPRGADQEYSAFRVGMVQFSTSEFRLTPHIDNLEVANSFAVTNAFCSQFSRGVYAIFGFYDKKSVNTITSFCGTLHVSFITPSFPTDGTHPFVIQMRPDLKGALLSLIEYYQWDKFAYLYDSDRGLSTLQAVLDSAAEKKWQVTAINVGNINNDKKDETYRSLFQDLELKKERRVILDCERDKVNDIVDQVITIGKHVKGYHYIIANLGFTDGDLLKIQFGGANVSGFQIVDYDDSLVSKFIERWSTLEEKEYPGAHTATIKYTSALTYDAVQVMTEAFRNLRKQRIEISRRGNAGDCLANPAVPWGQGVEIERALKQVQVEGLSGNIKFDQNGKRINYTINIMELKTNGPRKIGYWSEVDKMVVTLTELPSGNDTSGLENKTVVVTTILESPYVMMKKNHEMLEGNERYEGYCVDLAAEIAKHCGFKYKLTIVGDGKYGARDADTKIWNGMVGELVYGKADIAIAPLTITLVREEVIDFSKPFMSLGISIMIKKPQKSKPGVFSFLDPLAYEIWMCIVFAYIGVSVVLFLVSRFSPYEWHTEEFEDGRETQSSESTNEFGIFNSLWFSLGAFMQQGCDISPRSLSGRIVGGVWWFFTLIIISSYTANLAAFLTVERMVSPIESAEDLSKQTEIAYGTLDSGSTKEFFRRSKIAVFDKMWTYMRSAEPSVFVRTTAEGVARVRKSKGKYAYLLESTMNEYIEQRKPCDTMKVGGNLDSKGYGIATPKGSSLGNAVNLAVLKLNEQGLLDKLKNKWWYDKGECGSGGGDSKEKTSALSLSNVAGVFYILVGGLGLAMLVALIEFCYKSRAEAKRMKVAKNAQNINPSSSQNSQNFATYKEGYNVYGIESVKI

ACP-GluA1 (GluA1 tagged with the acyl carrier protein at its N-terminus) (mouse), sequence (P23818 19-907): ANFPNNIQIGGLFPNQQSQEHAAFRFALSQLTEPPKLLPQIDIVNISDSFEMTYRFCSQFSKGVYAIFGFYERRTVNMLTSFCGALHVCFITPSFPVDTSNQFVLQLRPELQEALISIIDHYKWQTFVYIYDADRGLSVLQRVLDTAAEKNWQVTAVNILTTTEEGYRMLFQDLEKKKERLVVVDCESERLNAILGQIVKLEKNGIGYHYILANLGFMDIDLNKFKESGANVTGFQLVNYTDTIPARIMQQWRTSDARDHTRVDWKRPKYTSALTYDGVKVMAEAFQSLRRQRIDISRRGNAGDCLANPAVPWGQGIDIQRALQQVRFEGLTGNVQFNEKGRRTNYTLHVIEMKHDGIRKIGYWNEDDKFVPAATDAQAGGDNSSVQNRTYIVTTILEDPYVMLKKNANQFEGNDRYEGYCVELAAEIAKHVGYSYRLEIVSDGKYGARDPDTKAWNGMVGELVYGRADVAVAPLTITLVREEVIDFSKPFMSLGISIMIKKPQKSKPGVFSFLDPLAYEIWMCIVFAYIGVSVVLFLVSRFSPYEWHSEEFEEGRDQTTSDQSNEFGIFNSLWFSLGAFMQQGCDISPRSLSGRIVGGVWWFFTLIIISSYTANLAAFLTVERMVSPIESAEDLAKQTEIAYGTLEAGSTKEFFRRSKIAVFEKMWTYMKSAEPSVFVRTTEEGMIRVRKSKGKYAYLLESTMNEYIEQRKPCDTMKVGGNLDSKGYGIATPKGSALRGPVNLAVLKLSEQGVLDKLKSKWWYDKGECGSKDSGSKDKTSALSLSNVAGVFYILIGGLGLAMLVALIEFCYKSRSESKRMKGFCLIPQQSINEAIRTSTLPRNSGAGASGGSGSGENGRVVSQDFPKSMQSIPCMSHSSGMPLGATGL

B1: TARP2-mGFP (transmembrane AMPA receptor regulatory protein 2 with mGFP fused to its C-terminus) (natural protein)
chain: MGLFDRGVQMLLTTVGAFAAFSLMTIAVGTDYWLYSRGVCKTKSVSENETSKKNEEVMTHSGLWRTCCLEGNFKGLCKQIDHFPEDADYEADTAEYFLRAVRASSIFPILSVILLFMGGLCIAASEFYKTRHNIILSAGIFFVSAGLSNIIGIIVYISANAGDPSKSDSKKNSYSYGWSFYFGALSFIIAEMVGVLAVHMFIDRHKQLRATARATDYLQASAITRIPSYRYRYQRRSRSSSRSTEPSHSRDASPVGVKGFNTLPSTEISMYTLSRDPLKAATTPTATYNSDRDNSFLQVHNCIQKDSKDSLHANTANRRTTPV
lifetime of binding (to GluA1 monomers and to GluA1 homodimers) [1]: 200 ms

B2: TARP2-mGFP (transmembrane AMPA receptor regulatory protein 2 with mGFP fused to its C-terminus), O88602 1-323 (natural protein)
chain: B1 chain
modifications: here or on the partner: ATTO594 on the ACP tag (ATTO594-Coenzyme A with ACP-synthase)
lifetime of binding (to GluA2 monomers and to GluA2 homodimers) [2]: 200 ms
